Laboratory results published in patent publication US20070004636A1, “Method of degrading transcriptional factors of saccharometabolism-associated gene, method for inhibiting the degradation, and agent for inhibiting degradation and degradation inhibitor” (priority 2002, published 2007).

Legend:
human HNF-4α = assay: in vitro protein degradation test of HNF-4α by calpain (Western blotting); assay type: biochemical; details: 1 hour at 37° C.
Method: Using the HNF-4α expression plasmid, in vitro synthesis of HNF-4α protein was conducted using the TNT T7 Quick Coupled Transcription/Translation System (Promega, Inc.). That is, the HNF-4α expression plasmid was mixed with TNT T7 Quick Master Mix, and then incubated for 1.5 hours at 30° C. in the presence of methionine to synthesize HNF-4α.
The in vitro protein degradation test was carried out by adding m-calpain extracted from rabbit muscle (Protease, Calcium-Activated Neutral (calpain), Sigma Chemical Co.) at a final concentration of 50 μg/mL to the synthesized HNF-4α, and then incubating for 1 hour at 37° C. in the presence of 200 mM Tris-HCl (pH 7.8)/1 mM dithiothreitol (DTT)/6 mM CaCl2. To conduct a degradation test in the absence of calcium, a test sample was prepared by adding 10 mM ethylenediaminetetraacetic acid (EDTA) instead of 6 mM CaCl2, and the sample was then incubated in a similar manner. The samples after incubation were added to an equal volume of 2× sodium dodecyl sulfate (SDS) sample buffer (4% SDS/125 mM Tris-HCl, pH 6.8/20% glycerol/0.01% bromphenol blue (BPB)/10% β-mercaptoethanol), heated for 5 minutes, and subjected to 10% SDS-PAGE for separation. Thereafter, Western blotting was carried out to detect HNF-4α using anti-HNF-4α antibody/HNF-4α (C-19) antibody (Santa Cruz Biotechnology, Inc.) and anti-Xpress antibody (Invitrogen, Inc.). An ECL Western blotting detection kit (Amersham pharmacia biotech) was used for the detection.
The final concentration of human m-calpain in the reaction system was 2.33 mg/mL as the protein concentration of the lysate of sf-9 cells that expressed human m-calpain. The final concentration of rat m-calpain in the reaction system was 59 units/mL. A degradation test was also conducted in the same manner without addition of calpain. Further, to test for degradation in the absence of calcium, a sample was prepared by adding 10 mM of EDTA instead of 6 mM CaCl2, and a degradation test was conducted with the sample in a similar manner. The samples after incubation were added to an equal volume of 2×SDS sample buffer, heated for 5 minutes, and subjected to 5-20% SDS-PAGE for separation. Thereafter, Western blotting was carried out to detect HNF-4α using anti-HNF-4α antibody/HNF-4α (C-19) antibody. An ECL Western blotting detection kit was used for the detection.
An in vitro protein degradation test was carried out by adding μ-calpain to HNF-4α at a final concentration of 50 units/mL, and incubating for 1 hour at 37° C. in the presence of 200 mM Tris-HCl (pH 7.8)/1 mM DTT/6 mM CaCl2. […]

human HNF-1α = assay: in vitro protein degradation test of HNF-1α by calpain (Western blotting); assay type: biochemical; details: 1 hour at 37° C.
Method: Using the HNF-1α expression plasmid, in vitro synthesis of HNF-1α protein was carried out using the TNT T7 Quick Coupled Transcription/Translation System. That is, the HNF-1α expression plasmid was mixed with TNT T7 Quick Master Mix, and then incubated for 1.5 hours at 30° C. in the presence of methionine to synthesize HNF-1α. Thereafter, immunoprecipitation was conducted by adding anti-Xpress antibody to the synthesized HNF-1α, mixing by inversion for 1 hour at 4° C., and then adding Protein G Sepharose 4 Fast Flow and mixing by inversion for an additional 1 hour at 4° C. Subsequently, Protein G Sepharose was collected by centrifugation and washed 3 times with washing buffer (50 mM Tris-HCl, pH 7.5/150 mM NaCl/0.2% Nonidet P-40), followed by rinsing with 200 mM Tris-HCl (pH 7.8) to obtain the HNF-1α sample as 20% slurry (hereunder, referred to as “HNF-1α slurry”).
Protein degradation tests were carried out in vitro by adding μ-calpain or m-calpain to the HNF-1α slurry, and incubating for 1 hour at 37° C. in the presence of 200 mM Tris-HCl (pH 7.8)/1 mM DTT/6 mM CaCl2. The final concentrations of the respective calpain in the reaction system were as follows: 50 units/mL of human μ-calpain; 50 μg/mL of rabbit m-calpain as a protein concentration; and 59 units/mL of rat m-calpain. For a control experiment, an HNF-1α slurry was incubated without the addition of calpain in a similar manner in the presence of calcium. Further, to test for protein degradation in the absence of calcium, a sample was prepared by adding 10 mM of EDTA instead of 6 mM of CaCl2 and was incubated in the same manner. The samples after incubation were added to an equal volume of 2×SDS sample buffer, heated for 5 minutes, and then subjected to 5-20% SDS-PAGE for separation. Thereafter, Western blotting was carried out to detect HNF-1α using anti-Omni/M21 antibody (Santa Cruz Biotechnology, Inc.), which recognizes a His-Xpress region, and anti-HNF-1α antibody/HNF-1α (C-19) antibody (Santa Cruz Biotechnology, Inc.). An ECL Western blotting detection kit was used for conducting the detection.
In-vitro protein degradation tests were carried out in the same manner as in Example 7, but the lysate of sf-9 cells that coexpressed m-calpain with calpain small subunit 1 was used as m-calpain. The final concentration of the lysate of the sf-9 cells that expressed these proteins in the reaction system was 1.75 mg/mL as a protein concentration. The final concentration of rat m-calpain in the reaction system was 59 units/mL. Detection of HNF-1α was performed in the same manner as Example 7, but only anti-HNF-1α antibody/HNF-1α (C-19) antibody was used.

[1] = in the absence of calcium (10 mM EDTA instead of CaCl2)
[2] = in the presence of calcium (6 mM CaCl2), Western blotting

B1: human m-calpain: lysate of sf-9 insect cells coexpressing human m-calpain with calpain small subunit 1; FLAG-tagged, expressed in HEK293T cells, in Example 3 (protein, UniProt P17655 20-700; P04632 1-268, looked up)
Calpain-2 catalytic subunit: SHDRAIKYLNQDYEALRNECLEAGTLFQDPSFPAIPSALGFKELGPYSSKTRGIEWKRPTEICADPQFIIGGATRTDICQGALGDCWLLAAIASLTLNEEILARVVPLNQSFQENYAGIFHFQFWQYGEWVEVVVDDRLPTKDGELLFVHSAEGSEFWSALLEKAYAKINGCYEALSGGATTEGFEDFTGGIAEWYELKKPPPNLFKIIQKALQKGSLLGCSIDITSAADSEAITFQKLVKGHAYSVTGAEEVESNGSLQKLIRIRNPWGEVEWTGRWNDNCPSWNTIDPEERERLTRRHEDGEFWMSFSDFLRHYSRLEICNLTPDTLTSDTYKKWKLTKMDGNWRRGSTAGGCRNYPNTFWMNPQYLIKLEEEDEDEEDGESGCTFLVGLIQKHRRRQRKMGEDMHTIGFGIYEVPEELSGQTNIHLSKNFFLTNRARERSDTFINLREVLNRFKLPPGEYILVPSTFEPNKDGDFCIRVFSEKKADYQAVDDEIEANLEEFDISEDDIDDGFRRLFAQLAGEDAEISAFELQTILRRVLAKRQDIKSDGFSIETCKIMVDMLDSDGSGKLGLKEFYILWTKIQKYQKIYREIDVDRSGTMNSYEMRKALEEAGFKMPCQLHQVIVARFADDQLIIDFDNFVRCLVRLETLFKIFKQLDPENTGTIELDLISWLCFSVL
Calpain small subunit 1: MFLVNSFLKGGGGGGGGGGGLGGGLGNVLGGLISGAGGGGGGGGGGGGGGGGGGGGTAMRILGGVISAISEAAAQYNPEPPPPRTHYSNIEANESEEVRQFRRLFAQLAGDDMEVSATELMNILNKVVTRHPDLKTDGFGIDTCRSMVAVMDSDTTGKLGFEEFKYLWNNIKRWQAIYKQFDTDRSGTICSSELPGAFEAAGFHLNEHLYNMIIRRYSDESGNMDFDNFISCLVRLDAMFRAFKSLDKDGTGQIQVNIQEWLQLTMYS
modifications: FLAG tag
- degradation of HNF-4α (human HNF-4α; [1]): not observed
- degradation of HNF-4α (human HNF-4α; [2]): observed
- degradation of HNF-1α (human HNF-1α; [1]): not observed
- degradation of HNF-1α (human HNF-1α; [2]): observed
